Measured values reported in article PMC5724754 (Cell reports, 2015).

Biological target: CSN3 (human (endogenous in HEK293, HEK293T …, UniProt Q9UNS2 1-423))
Test: co-IP

Chain of CSN3 (human (Q9UNS2 whole entry): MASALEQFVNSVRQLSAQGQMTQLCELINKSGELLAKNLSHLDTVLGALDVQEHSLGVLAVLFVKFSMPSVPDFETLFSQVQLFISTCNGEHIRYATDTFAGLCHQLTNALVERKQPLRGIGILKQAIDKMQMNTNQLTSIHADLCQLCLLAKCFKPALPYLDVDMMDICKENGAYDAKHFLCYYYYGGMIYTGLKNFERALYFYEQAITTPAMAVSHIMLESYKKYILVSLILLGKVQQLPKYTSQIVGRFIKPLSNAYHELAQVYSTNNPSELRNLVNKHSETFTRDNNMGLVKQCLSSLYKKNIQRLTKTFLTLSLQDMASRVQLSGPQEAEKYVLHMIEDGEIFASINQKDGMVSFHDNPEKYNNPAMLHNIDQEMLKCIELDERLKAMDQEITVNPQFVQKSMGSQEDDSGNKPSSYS

binding result: binds
B1: CSNAP (CSN Acidic Protein) (natural protein)
chain: MKPAVDEMFPEGAGPYVDLDEAGGSTGLLMDLAANEKAVHADFFNDFEDLFDDDDIQ
